In article PMC9270373 one finds stoichiometry N and ΔTm data, which are given here for two molecules.

Square brackets hold non-standard residues; d marks the D form. Ends that are not written are not given here. pT = C[C@@H](OP(=O)(O)O)[C@H](N)C(=O)O

Usually stoichiometry N stands for the number of molecules, sites or subunits per partner or assembly. As a reminder, the ΔTm is the shift of the melting midpoint relative to a reference.

The target of test [1] is potato 14-3-3 protein St14f (Solanum tuberosum L. (potato)). As to the kind of experiment: crystal structure; St14f free form, 2.5 Å; hanging drop, 12% (w/v) PEG 8000, 0.2 M ammonium tartrate pH 7, 277 K; three chains (A, B, C) in the asymmetric unit, dimers AA and BC.
In test [2] the target is St14f D217A (Solanum tuberosum L. (potato)). As to the kind of experiment: thermal shift assay; 10 µM St14f with no and with 100 µM StFDL1 peptide; SYPRO Orange; 10 mM HEPES pH 7.5, 0.15 M NaCl; heated from 25 to 99 °C; ΔTm = melting temperature difference with and without the peptide.
Test [3] has as its target St14f I221A M222A (Solanum tuberosum L. (potato)). The test is described as above.
For test [4], the target named is St14f L229A (Solanum tuberosum L. (potato)). Described as above.
The target in test [5] is St14f S214L (Solanum tuberosum L. (potato)). The description is as above.
Test [6] addresses St14f S214M (Solanum tuberosum L. (potato)). The test is described as above.
The target in test [7] is St14f S214T (Solanum tuberosum L. (potato)). Described as above.
Test [8] addresses St14f S218G (Solanum tuberosum L. (potato)). Described as above.
The target in test [9] is St14f S218L (Solanum tuberosum L. (potato)). The test is described as above.
Test [10] addresses St14f S218M (Solanum tuberosum L. (potato)). Described as above.
The target in test [11] is St14f Y215A (Solanum tuberosum L. (potato)). Described as above.
Test [12] has as its target potato 14-3-3 protein St14f (Solanum tuberosum L. (potato)). The test is described as above.

For “potato 14-3-3 protein St14f (natural protein)”, the stoichiometry N in [1] amounted to 2.
For the molecule LNRTS[pT]APF [StFDL1 peptide (LNRTSpTAPF)], the thermal shift (ΔTm) in [2] was 6.67 °C; in [3], 4.63 °C; in [4] it was 6.22 °C; in test [5] it was 4.26 °C; in [6], 3.6 °C; in [7], 4.01 °C. For the same molecule, the thermal shift (ΔTm) worked out at 6.37 °C in [8]; 7.61 °C in [9]; 7.48 °C in test [10]; 4.42 °C in test [11]; 4.03 °C in test [12].
